Starred links: 1 amine or outer side, 2 acyl side, 3 side chain; linkers in the order of their positions; H or OH if unused. Non-standard residues stand in square brackets, D forms with d. Groups on a side chain read outwards from the residue. Primed or numbered codes have the meaning given here. No end group written: not given here. *: point of attachment. Dodecylbenzoate = dodecylbenzoyl lipid group; γGlu = O=C(O)[C@H](CCC(=O)[*:2])N[*:1]; αMeF = C[C@](N)(Cc1ccccc1)C(=O)O; αMeK = C[C@](N)(CCCCN)C(=O)O; Lauroyl = CCCCCCCCCCCC(=O)*; αMeS = C[C@](N)(CO)C(=O)O; PEG2′ = not defined here; Aib = CC(C)(N)C(=O)O; Ahx = NCCCCCC(=O)O
T1: glucose-dependent insulinotropic peptide (gastric inhibitory polypeptide) receptor (GIPR) (human, UniProt P48546 22-466)
T1 sequence (looked up): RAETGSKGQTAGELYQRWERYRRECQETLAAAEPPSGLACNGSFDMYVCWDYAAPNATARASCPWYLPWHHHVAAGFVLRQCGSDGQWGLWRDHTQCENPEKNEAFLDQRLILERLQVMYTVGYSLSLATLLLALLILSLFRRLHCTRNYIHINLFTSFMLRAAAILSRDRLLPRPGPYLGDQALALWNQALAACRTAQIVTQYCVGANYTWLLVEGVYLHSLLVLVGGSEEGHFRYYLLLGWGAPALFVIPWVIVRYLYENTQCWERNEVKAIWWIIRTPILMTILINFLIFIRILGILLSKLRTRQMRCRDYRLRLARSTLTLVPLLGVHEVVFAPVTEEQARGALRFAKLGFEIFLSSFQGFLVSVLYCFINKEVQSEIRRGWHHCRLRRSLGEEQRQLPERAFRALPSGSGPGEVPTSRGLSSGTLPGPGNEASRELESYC

B1: SEQ ID NO 171 (peptide)
peptide: H[Aib]EGS[αMeF]TSDV[αMeS]S[αMeF]LEGEAA[αMeK]E[αMeF]IA[αMeF]VVK([PEG2′-PEG2′-Lauroyl])GG-NH2
B2: SEQ ID NO 180 (peptide)
peptide: H[Aib]EGS[αMeF]TSDV[αMeS]S[αMeF]LEGEAA[αMeK]E[αMeF]IA[αMeF]VVK([PEG2′-PEG2′-Dodecylbenzoate])GG-NH2
B3: SEQ ID NO 176 (peptide)
peptide: H[Aib]EGS[αMeF]TSDV[αMeS]S[αMeF]LEGEAA[αMeK]E[αMeF]IA[αMeF]VVK([Ahx-Dodecylbenzoate])GG-NH2
B4: SEQ ID NO 172 (peptide)
peptide: H[Aib]EGS[αMeF]TSDV[αMeS]S[αMeF]LEGEAA[αMeK]E[αMeF]IA[αMeF]VVK([PEG2′-PEG2′-PEG2′-Lauroyl])GG-NH2
B5: SEQ ID NO 175 (peptide)
peptide: H[Aib]EGS[αMeF]TSDV[αMeS]S[αMeF]LEGEAA[αMeK]E[αMeF]IA[αMeF]VVK([γGlu-γGlu-γGlu-Dodecylbenzoate])GG-NH2
B6: SEQ ID NO 173 (peptide)
peptide: H[Aib]EGS[αMeF]TSDV[αMeS]S[αMeF]LEGEAA[αMeK]E[αMeF]IA[αMeF]VVK([γGlu-Dodecylbenzoate])GG-NH2
B7: SEQ ID NO 174 (peptide)
peptide: H[Aib]EGS[αMeF]TSDV[αMeS]S[αMeF]LEGEAA[αMeK]E[αMeF]IA[αMeF]VVK([γGlu-γGlu-Dodecylbenzoate])GG-NH2
B8: SEQ ID NO 177 (peptide)
peptide: H[Aib]EGS[αMeF]TSDV[αMeS]S[αMeF]LEGEAA[αMeK]E[αMeF]IA[αMeF]VVK([Ahx-Ahx-Dodecylbenzoate])GG-NH2
B9: SEQ ID NO 178 (peptide)
peptide: H[Aib]EGS[αMeF]TSDV[αMeS]S[αMeF]LEGEAA[αMeK]E[αMeF]IA[αMeF]VVK([Ahx-Ahx-Ahx-Dodecylbenzoate])GG-NH2
B10: SEQ ID NO 169 (peptide)
peptide: H[Aib]EGS[αMeF]TSDV[αMeS]S[αMeF]LEGEAA[αMeK]E[αMeF]IA[αMeF]VVK([Ahx-Ahx-Ahx-Lauroyl])GG-NH2
modifications: N-terminus assumed
SMILES: CCCCCCCCCCCC(=O)NCCCCCC(=O)NCCCCCC(=O)NCCCCCC(=O)NCCCC[C@H](NC(=O)[C@@H](NC(=O)[C@@H](NC(=O)[C@](C)(Cc1ccccc1)NC(=O)[C@H](C)NC(=O)[C@@H](NC(=O)[C@](C)(Cc1ccccc1)NC(=O)[C@H](CCC(=O)O)NC(=O)[C@](C)(CCCCN)NC(=O)[C@H](C)NC(=O)[C@H](C)NC(=O)[C@H](CCC(=O)O)NC(=O)CNC(=O)[C@H](CCC(=O)O)NC(=O)[C@H](CC(C)C)NC(=O)[C@](C)(Cc1ccccc1)NC(=O)[C@H](CO)NC(=O)[C@](C)(CO)NC(=O)[C@@H](NC(=O)[C@H](CC(=O)O)NC(=O)[C@H](CO)NC(=O)[C@@H](NC(=O)[C@](C)(Cc1ccccc1)NC(=O)[C@H](CO)NC(=O)CNC(=O)[C@H](CCC(=O)O)NC(=O)C(C)(C)NC(=O)[C@@H](N)Cc1c[nH]cn1)[C@@H](C)O)C(C)C)[C@@H](C)CC)C(C)C)C(C)C)C(=O)NCC(=O)NCC(N)=O
B11: SEQ ID NO 181 (peptide)
peptide: H[Aib]EGS[αMeF]TSDV[αMeS]S[αMeF]LEGEAA[αMeK]E[αMeF]IA[αMeF]VVK([PEG2′-PEG2′-PEG2′-Dodecylbenzoate])GG-NH2
B12: SEQ ID NO 170 (peptide)
peptide: H[Aib]EGS[αMeF]TSDV[αMeS]S[αMeF]LEGEAA[αMeK]E[αMeF]IA[αMeF]VVK([PEG2′-Lauroyl])GG-NH2
B13: SEQ ID NO 179 (peptide)
peptide: H[Aib]EGS[αMeF]TSDV[αMeS]S[αMeF]LEGEAA[αMeK]E[αMeF]IA[αMeF]VVK([PEG2′-Dodecylbenzoate])GG-NH2

Experiments:
Experiment in all cases: cell-based or functional assay
GLP-1 receptor (GLP-1R) = GLP-1 receptor (GLP-1R) (human, UniProt P43220 24-463)
glucagon receptor (GCGR) = glucagon receptor (GCGR) (human, UniProt P47871 26-477)
[1] = target: T1, glucose-dependent insulinotropic …

Sequence of glucagon receptor (GCGR) (P47871 26-477): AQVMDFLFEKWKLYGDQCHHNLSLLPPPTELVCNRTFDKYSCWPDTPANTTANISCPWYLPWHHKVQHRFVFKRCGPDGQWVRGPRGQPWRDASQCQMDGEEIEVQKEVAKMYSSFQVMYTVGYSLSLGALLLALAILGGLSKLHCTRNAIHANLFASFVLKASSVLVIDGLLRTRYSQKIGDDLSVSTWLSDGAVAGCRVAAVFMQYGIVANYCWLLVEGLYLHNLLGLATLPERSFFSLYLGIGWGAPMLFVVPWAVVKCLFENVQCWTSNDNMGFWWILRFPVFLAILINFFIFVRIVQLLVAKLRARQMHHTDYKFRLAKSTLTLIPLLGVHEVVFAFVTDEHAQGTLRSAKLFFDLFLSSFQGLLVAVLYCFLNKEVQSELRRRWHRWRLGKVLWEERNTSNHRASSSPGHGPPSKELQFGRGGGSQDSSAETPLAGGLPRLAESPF

Binder	Primary assay EC50 (cAMP), GLP-1R n1 (GLP-1 receptor (GLP-1R)) [pM]	Primary assay EC50 (cAMP), GLP-1R n2 (GLP-1 receptor (GLP-1R)) [pM]	Primary assay EC50 (cAMP), Mean pM GLP-1R (GLP-1 receptor (GLP-1R)) [pM]	Primary assay EC50 (cAMP), Gluc-R, first run (glucagon receptor (GCGR)) [nM]	Primary assay EC50 (cAMP), Gluc-R, second run (glucagon receptor (GCGR)) [nM]	Primary assay EC50 (cAMP), GIP-R, first run [1] [nM]	Primary assay EC50 (cAMP), GIP-R, second run [1] [nM]
B1	2.5	1.2	1.9	27	27	27	27
B2	3.2	1.1	2.2	26	26	26	26
B3	23	9.6	16	27	27	27	27
B4	1.5	0.72	1.1	26	26	26	26
B5	23	12	17.4	26	26	26	26
B6	21	9.2	15.1	27	27	27	27
B7	22	11	16.3	26	26	26	26
B8	6.4	3	4.7	27	27	27	27
B9	5	2.3	3.6	26	26	26	26
B10	3.4	1.7	2.6	27	27	27	27
B11	2.1	0.83	1.5	25	25	25	25
B12	8	4.5	6.2	28	28	28	28
B13	11	4.4	7.9	27	27	27	27

Reference: patent publication US20200079833A1 (AstraZeneca / MedImmune, published 2020)
